From patent US20150190494A1 (OXFORD UNIVERSITY INNOVATION, published 2015)
Numbering of substitutions follows the chain as printed. Numbers in names are those of the source.

T1: fH67 (UniProt P08603 321-443)
T1 construct: domain: fH67; Flowed as analyte over immobilised fHbps in SPR; also called factor H
T1 sequence: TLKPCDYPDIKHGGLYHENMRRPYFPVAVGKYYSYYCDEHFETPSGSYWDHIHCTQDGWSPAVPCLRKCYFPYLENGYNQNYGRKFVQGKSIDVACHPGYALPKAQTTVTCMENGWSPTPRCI

B1: WT V2 fHbp (other)
chain: CSSGGGGVAADIGAGLADALTAPLDHKDKSLQSLTLDQSVRKNEKLKLAAQGAEKTYGNGDSLNTGKLKNDKVSRFDFIRQIEVDGQLITLESGEFQIYKQDHSAVVALQIEKINNPDKIDSLINQRSFLVSGLGGEHTAFNQLPSGKAEYHGKAFSSDDPNGRLHYSIDFTKKQGYGRIEHLKTPEQNVELASAELKADEKSHAVILGDTRYGGEEKGTYHLALFGDRAQEIAGSATVKIREKVHEIGIAGKQ
notes: also called wild type V2 fHbp; V2WT
B2: M6 V2 fHbp (S35G/D107S/V112T/L114F/S137G/G138D) (other)
chain: B1 chain with S30G, D102S, V107T, L109F, S132G, G133D
B3: M5 V2 fHbp (S35G/D107S/L114F/S137G/G138D) (other)
chain: B1 chain with S30G, D102S, L109F, S132G, G133D
B4: M4B V2 fHbp (S35G/L114F/S137G/G138D) (other)
chain: B1 chain with S30G, L109F, S132G, G133D
B5: M4A V2 fHbp (S35G/D107S/S137G/G138D) (other)
chain: B1 chain with S30G, D102S, S132G, G133D

Assays:
fH67 [1] = molecular target: T1, fH67; experiment: SPR, fHbp immobilised on sensor chip, fH67 flowed over
Description: Kd values for fH₆₇ binding to the stable V2 fHbps were calculated from the sensogram (fH₆₇ binding to WT V2 fHbp shown in Appendix 3a) and compared to fH₆₇ binding to WT V2 fHbp (Table 3).

fH67 [2] = molecular target: T1, fH67; experiment: SPR, fHbp immobilised on sensor chip, fH67 flowed over; mean ± SD of two determinations

| Binder | Relative Kd (fH67 [1]) | Kd (fH67 [2]) |
| --- | --- | --- |
| B1 | 1 fold against WT V2 fHbp | 3.18 nM |
| B2 | 19.3 fold against WT V2 fHbp | 61.3 nM |
| B3 | 3.84 fold against WT V2 fHbp | 12.2 nM |
| B4 | 3.92 fold against WT V2 fHbp | 12.5 nM |
| B5 | 2.39 fold against WT V2 fHbp | 7.6 nM |
